According to PMC2805030 (2010):

Molecular target: T1, RXRα LBD 226-462 (Homo sapiens, UniProt P19793)
T1 chain: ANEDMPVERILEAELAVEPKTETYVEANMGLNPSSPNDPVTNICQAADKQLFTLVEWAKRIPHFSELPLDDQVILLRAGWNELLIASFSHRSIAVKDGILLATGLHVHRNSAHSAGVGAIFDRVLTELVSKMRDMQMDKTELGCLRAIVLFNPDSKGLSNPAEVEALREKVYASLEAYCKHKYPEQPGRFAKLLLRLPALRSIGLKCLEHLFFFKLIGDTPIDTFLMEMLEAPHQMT
Assay: sedimentation equilibrium analytical ultracentrifugation

Kd: 832 nM
B1: RXRα LBD 226-462 (protein)
chain: T1 chain
modifications: fluorescein-labeled
